Data on six molecules can be found in US20230340419A1, “METHODS FOR GENERATION OF MOUSE AND HUMAN URETERIC BUD ORGANOIDS AND COLLECTING DUCT ORGANOIDS” (University of Southern California, priority 2020, published 2023).

Type in all cases: cell-based, mouse
One assay has as its system UB organoids. The experiment in a line: 2nd round of CD differentiation condition screening (qRT-PCR of Aqp2 and Foxi1). Conditions: qRT-PCR, 7 days, under hBI+FGF9+Y27632 condition. On the procedure:
The functions of the mature renal CD system are carried out by two major cell populations that are intermingled throughout the entire CD network. The more abundant principal cells (PCs) concentrate the urine and regulate Na^+/K^+ homeostasis via water and Na^+/K^+ transporters. The less abundant α- and β-intercalated cells (ICs) regulate normal acid-base homeostasis via secretion of H^+ or HCO3^− into the urine. The absence of an in vitro system recapitulating PC and IC development in an appropriate 3D context, constrains physiological exploration, disease modeling and drug screening on the renal CD system. With this limitation in mind, we developed a screen to establish conditions supporting the differentiation of CD organoids, assaying expression of Aqp2 and Foxi1, definitive markers for PC and IC lineages, respectively, by quantitative reverse transcription PCR (qRT-PCR), following 7 days of culture under variable but defined culture conditions (FIG. 2A).
Agonists or antagonists targeting major developmental pathways (e.g. TGF-β, BMP, Wnt, FGF, Hedgehog and Notch) were tested, together with hormonal inputs known to regulate PC or IC activity (aldosterone and vasopressin).
(In general: Real-time PCR tracks product formation cycle by cycle.)

Assay [1] relates to Wnt11-RFP UB organoid. The experiment in a line: Stage III 1st round screening of growth factors and small molecules for UB organoid culture condition. Conditions: reagent added to FGF9 + C3 + TTNPB + GDNF; compared to that control group. An excerpt:
We employed this Wnt11-RFP reporter system as a readout to screen for a culture condition that maintained the progenitor identity of UPCs in vitro. T-shaped UBs were manually isolated from E11.5 kidneys of Wnt11-RFP mice, and immediately embedded into Matrigel to set up a 3D culture platform that supported epithelial branching. In this 3D culture format, built on previous efforts towards the ex vivo culture of UB, hundreds of different combinations of growth factors and small molecules were tested (see also the Materials and Techniques section below for details under subheading “Screening for optimal UB culture condition”).
We systematically screened the optimal UB culture condition in four different stages (Stages I-IV).
In Stage III, based on the optimized recipe consisting of FGF9, TTNPB, CHIR99021 (3 μM) and GDNF, we preformed our 1st round of screening of growth factors and small molecules targeting major developmental pathways (e.g. TGF-β, BMP, Wnt, FGF, Hedgehog and Notch) and others. The branching morphogenesis, growth rate and Wnt11-RFP were recorded as readouts (Table 1). […] Representative images were taken at least for LDN193189, A83-01, and R-Spondin 1. These individual hits were then subjected to a 2nd round of screening to test their effects in various combinations, eventually leading to the identification of the optimal UB progenitor culture medium UBCM consisting of FGF9, TTNPB, CHIR99021 (3 μM), GDNF, LDN193189, A83-01, R-Spondin1, JAKI and SB202190.

For assay [2], the system named is Wnt11-RFP UB organoid. The experiment in a line: Withdrawal of individual components from UBCM (Stage IV validation). The following applies: component withdrawn from UBCM. From the text:
To determine whether UBCM culture conditions enabled clonal growth from a single UPC, dissociated E11.5 UBs were embedded at clonal density in Matrigel and cultured in UBCM medium. Around 30% of the single cells self-organized into E11.5 UB-like budding structures within 5 days, though a smaller percentage (3-5%) maintained Wnt11-RFP (FIG. 1G), an efficiency similar to clonal organoid formation for Lgr5^+ intestinal stem cells. Importantly, the clonally-derived Wnt11-RFP^+ budding structures were identical to intact E11.5 UB-derived organoids in both branching morphology and growth rate (Table 3, FIG. 1H).
Lastly, in Stage IV, we asked whether each of the components in UBCM was essential.

B1: BMP7: growth factor tested in screening (protein, UniProt P18075 293-431, looked up)
Bone morphogenetic protein 7: STGSKQRSQNRSKTPKNQEALRMANVAENSSSDQRQACKKHELYVSFRDLGWQDWIIAPEGYAAYYCEGECAFPLNSYMNATNHAIVQTLVHFINPETVPKPCCAPTQLNAISVLYFDDSSNVILKKYRNMVVRACGCH
For the molecule B1, in the assay with UB organoids, the Aqp2 expression entry was “dramatically increased” and the Foxi1 expression result is on record as “dramatically increased”. Also, the Wnt11-RFP result with Wnt11-RFP UB organoid [1] is “Better”.

B2: R-Spondin 1: UBCM component (protein, UniProt Q2MKA7 21-263, looked up)
R-spondin-1: SRGIKGKRQRRISAEGSQACAKGCELCSEVNGCLKCSPKLFILLERNDIRQVGVCLPSCPPGYFDARNPDMNKCIKCKIEHCEACFSHNFCTKCKEGLYLHKGRCYPACPEGSSAANGTMECSSPAQCEMSEWSPWGPCSKKQQLCGFRRGSEERTRRVLHAPVGDHAACSDTKETRRCTVRRVPCPEGQKRRKGGQGRRENANRNLARKESKEAGAGSRRRKGQQQQQQQGTVGPLTSAGPA
On to B2, for which the Wnt11-RFP entry with Wnt11-RFP UB organoid [1] is given as “Better”.

B3: FGF4: member of the FGF family (protein, UniProt P08620 31-206, looked up)
Fibroblast growth factor 4: APTAPNGTLEAELERRWESLVALSLARLPVAAQPKEAAVQSGAGDYLLGIKRLRRLYCNVGIGFHLQALPDGRIGGAHADTRDSLLELSPVERGVVSIFGVASRFFVAMSSKGKLYGSPFFTDECTFKEILLPNNYNAYESYKYPGMFIALSKNGKTKKGNRVSPTMKVTHFLPRL
On to B3, for which, in the assay on Wnt11-RFP UB organoid [1], the Wnt11-RFP entry was “Worse”.

B4: FGF10: member of the FGF family (protein, UniProt O15520 38-208, looked up)
Fibroblast growth factor 10: QALGQDMVSPEATNSSSSSFSSPSSAGRHVRSYNHLQGDVRWRKLFSFTKYFLKIEKNGKVSGTKKENCPYSILEITSVEIGVVAVKAINSNYYLAMNKKGKLYGSKEFNNDCKLKERIEENGYNTYASFNWQHNGRQMYVALNGKGAPRRGQKTRRKNTSAHFLPMVVHS
B4: in the assay on Wnt11-RFP UB organoid [1], the Organoid growth entry is on record as “Slower” and the Wnt11-RFP entry was “Worse”.

B5: FGF8: member of the FGF family (protein, UniProt P55075 23-233, looked up)
Fibroblast growth factor 8: QEGPGRGPALGRELASLFRAGREPQGVSQQHVREQSLVTDQLSRRLIRTYQLYSRTSGKHVQVLANKRINAMAEDGDPFAKLIVETDTFGSRVRVRGAETGLYICMNKKGKLIAKSNGKGKDCVFTEIVLENNYTALQNAKYEGWYMAFTRKGRPRKGSKTRQHQREVHFMKRLPRGHHTTEQSLRFEFLNYPPFTRSLRGSQRTWAPEPR
In the case of B5, the Wnt11-RFP result in the assay with Wnt11-RFP UB organoid [1] is recorded as “Worse”.

B6: GDNF: glial cell-derived neurotrophic factor (protein, UniProt P39905 78-211, looked up)
Glial cell line-derived …: SPDKQMAVLPRRERNRQAAAANPENSRGKGRRGQRGKNRGCVLTAIHLNVTDLGLGYETKEELIFRYCSGSCDAAETTYDKILKNLSRNRRLVSDKVGQACCRPIAFDDDLSFLDDNLVYHILRKHSAKRCGCI
For B6, the “Effect of withdrawal of the component from UBCM on organoid growth” value with Wnt11-RFP UB organoid [2] is recorded as “growth arrest”.
